The values below come from the supplement of paper PMC7877785.

± gives the uncertainty stated by the source.

A short description of this series: self-splicing fitness, log relative to wild type (ln ratio); higher = more splicing; Tetrahymena group I intron in knt gene, E. coli kanamycin selection, DiMSum; sequences stand for … in CUCUCU…GGAGGGAAAAGUUAUCAGGCAUGCACCUGGUAGCUAGUCUUUAAACCAAUAGAUUGCAUCGGUUUAAAAGGCAAGACCGUCAAAUUGCGGGAAAGGGGUCAACAGCCGUUCAGUACCAAGUCUCAGGGGAAACUUUGAGAUGGCCUUGCAAAGGGUAUGGUAAUAAGCUGACGGACAUGGUCCUAACCACGCAGCCAAGUCCUAAGUCAACAGAUCUUCUGUUGAUAUGGAUGCAGUUCACAGACUAAAUGUCGGUCGGGGAAGAUGUAUUCUUCUCAUAAGAUAUAGUCGGACCUCUCCUUAAUGGGAGCUAGCGGAUGAAGUGAUGCAACACUGGAGCCGCUGGGAACUAAUUUGUAUGCGAAAGUAUAUUGAUUAGUUUUGGAGUACUCGUGGUCG
The gist of the method: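 A randomised library covering all eight P1ex-region intron nucleotides was built with the intron in the knt kanamycin-resistance gene on pET-22b(+) and held in E. coli BL21(DE3). Cells were grown overnight at 37°C or 30°C on LB agar, with or without 25 μg/mL kanamycin, plus 100 μg/mL carbenicillin, 50 μM IPTG and 0.2% rhamnose, and pooled colonies were amplicon-sequenced on an Illumina HiSeq 2500. DiMSum fitness is the error-weighted combination of wild-type-normalised replicate fold changes, kanamycin versus none.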

With CCCCAGCAAUAUUACGACAC, the “self-splicing fitness (ln)” value was -3.97 ± 0.43 (30 °C) and -2.41 ± 0.36 (37 °C).
Regarding CCCCAGCAAUAUUACGAGGA, the “self-splicing fitness (ln)” value runs as follows: (30 °C) -2.66 ± 0.13; (37 °C) -1.53 ± 0.11.
CCCCAGCAAUAUUACGAUCC: the “self-splicing fitness (ln)” value is, setting by setting: (30 °C) -3.27 ± 0.27; (37 °C) -0.776 ± 0.32.
For CCCCAGCAAUAUUACGAUGA, the “self-splicing fitness (ln)” value is, setting by setting: (30 °C) -3.16 ± 0.16; (37 °C) -3.01 ± 0.19.
With CCCCAGCAAUAUUACGAUGC, the “self-splicing fitness (ln)” value is, setting by setting: (30 °C) -3.46 ± 0.16; (37 °C) -3.15 ± 0.29.
On to CCCCAGCAAUAUUACGCAAA, for which the “self-splicing fitness (ln)” value (30 °C) is -3.28 ± 0.14 and the “self-splicing fitness (ln)” value (37 °C) is -2.44 ± 0.18.
On the same counts, the results for CCCCAGCAAUAUUACGCAAC are -3.54 ± 0.14 and -2.48 ± 0.15.
On the same counts, the results for CCCCAGCAAUAUUACGCACU are -4.21 ± 0.33 and -2.68 ± 0.22.
Consider CCCCAGCAAUAUUACGCGUU, for which the “self-splicing fitness (ln)” value was -4.16 ± 0.17 (30 °C) and -2.57 ± 0.19 (37 °C).
Consider CCCCAGCAAUAUUACGCUCU, for which the “self-splicing fitness (ln)” value by setting is: (30 °C) -3.81 ± 0.22; (37 °C) -2.47 ± 0.26.
As to CCCCAGCAAUAUUACGCUUA, the “self-splicing fitness (ln)” value is, setting by setting: (30 °C) -3.59 ± 0.17; (37 °C) -2.66 ± 0.17.
For CCCCAGCAAUAUUACGGACG, the “self-splicing fitness (ln)” value runs as follows: (30 °C) -1.67 ± 0.096; (37 °C) -0.944 ± 0.13.
For the sequence CCCCAGCAAUAUUACGGAGG, the “self-splicing fitness (ln)” value (30 °C) was -4.83 ± 0.26 and the “self-splicing fitness (ln)” value (37 °C) was -2.63 ± 0.16.
In the same order, the values of CCCCAGCAAUAUUACGGCAA are -3.17 ± 0.15 and -3.06 ± 0.2.
On the same counts, the results for CCCCAGCAAUAUUACGGUGC are -3.88 ± 0.19 and -2.73 ± 0.18.
Take CCCCAGCAAUAUUACGGUUC: the “self-splicing fitness (ln)” value was -4.25 ± 0.25 (30 °C) and -2.97 ± 0.28 (37 °C).
On to CCCCAGCAAUAUUACGUACG, for which the “self-splicing fitness (ln)” value is, setting by setting: (30 °C) -3.95 ± 0.26; (37 °C) -1.89 ± 0.17.
Take CCCCAGCAAUAUUACGUAGU: the “self-splicing fitness (ln)” value is, setting by setting: (30 °C) -3.09 ± 0.078; (37 °C) -3.07 ± 0.16.
Regarding CCCCAGCAAUAUUACGUCCC, the “self-splicing fitness (ln)” value (30 °C) is -2.21 ± 0.36.
As for CCCCAGCAAUAUUACGUUCU, the “self-splicing fitness (ln)” value is, setting by setting: (30 °C) -4.2 ± 0.27; (37 °C) -3.05 ± 0.17.
Consider CCCCAGCAAUAUUACGUUUA, for which the “self-splicing fitness (ln)” value was -3.99 ± 0.16 (30 °C) and -2.35 ± 0.15 (37 °C).
On to CCCGAGCAAUAUUACGCAAA, for which the “self-splicing fitness (ln)” value is, setting by setting: (30 °C) -4.05 ± 0.35; (37 °C) -0.386 ± 0.21.
On the same counts, the results for CCCGAGCAAUAUUACGCAGG are -1.97 ± 0.2 and -1.36 ± 0.22.
In the same order, the values of CCCGAGCAAUAUUACGCAUU are -3.69 ± 0.33 and -2.22 ± 0.3.
On the same counts, the results for CCCGAGCAAUAUUACGCCGC are -3.53 ± 0.43 and -1.59 ± 0.47.
As for CCCGAGCAAUAUUACGCGCU, the “self-splicing fitness (ln)” value reads like this: (30 °C) -3.45 ± 0.25; (37 °C) -2.91 ± 0.29.
In the case of CCCGAGCAAUAUUACGCGGC, the “self-splicing fitness (ln)” value runs as follows: (30 °C) -3.67 ± 0.4; (37 °C) -1.88 ± 0.29.
For CCCGAGCAAUAUUACGCGUG, the “self-splicing fitness (ln)” value (30 °C) is -3.9 ± 0.2 and the “self-splicing fitness (ln)” value (37 °C) was -3.2 ± 0.29.
On the same counts, the results for CCCGAGCAAUAUUACGGCUA are -3.46 ± 0.29 and -3.2 ± 0.32.
For the sequence CCCGAGCAAUAUUACGGCUC, the “self-splicing fitness (ln)” value by setting is: (30 °C) -4.18 ± 0.34; (37 °C) -2.21 ± 0.23.
In the case of CCCGAGCAAUAUUACGGGCA, the “self-splicing fitness (ln)” value is, setting by setting: (30 °C) -3.2 ± 0.23; (37 °C) -2.66 ± 0.23.
In the same order, the values of CCCGAGCAAUAUUACGGGGG are -3.59 ± 0.16 and -2.89 ± 0.27.
On to CCCGAGCAAUAUUACGGGUC, for which the “self-splicing fitness (ln)” value is -4.34 ± 0.28 (30 °C) and -2.12 ± 0.23 (37 °C).
